Test results: patent publication US20170267776A1 (published 2017)

Assays:
[1] = biological target: T1, recombinant human RSPO3 protein, biotinylated (captured on streptavidin-coated chips) (human, UniProt Q9BXY4 22-272, limits assumed, biotinylated (sites not given)); test: summary of Example 3 (SPR, Biacore 2000)
T1 sequence: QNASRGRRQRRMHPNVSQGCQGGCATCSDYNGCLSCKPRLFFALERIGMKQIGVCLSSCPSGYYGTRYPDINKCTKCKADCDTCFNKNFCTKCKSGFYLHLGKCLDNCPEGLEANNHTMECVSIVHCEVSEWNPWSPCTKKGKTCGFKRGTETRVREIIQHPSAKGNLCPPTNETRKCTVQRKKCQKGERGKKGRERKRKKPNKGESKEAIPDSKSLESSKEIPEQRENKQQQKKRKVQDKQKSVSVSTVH
Protocol: The antibodies were serially diluted 2-fold from 100 nM to 0.78 nM in HBS-P (0.01M HEPES pH 7.4, 0.15M NaCl, 0.005% v/v Surfactant P20) and were injected over the chip surface. Kinetic data were collected over time and were fit using the simultaneous global fit equation to yield affinity constants (KD values) for each antibody.

[2] = biological target: T2, LGR5-Fc fusion protein (mature form containing amino acids 22-564 of human LGR5 fused to human Fc) (human, UniProt O75473 22-564); test: SPR (Biacore 2000): RSPO-Fc immobilised on CM5 chip, soluble LGR5-Fc injected 100 nM to 0.78 nM
T2 construct: range 22-564; Expressed in insect cells (baculovirus) and purified by protein A; also called soluble LGR5-Fc; not shown: human Fc
T2 sequence (looked up): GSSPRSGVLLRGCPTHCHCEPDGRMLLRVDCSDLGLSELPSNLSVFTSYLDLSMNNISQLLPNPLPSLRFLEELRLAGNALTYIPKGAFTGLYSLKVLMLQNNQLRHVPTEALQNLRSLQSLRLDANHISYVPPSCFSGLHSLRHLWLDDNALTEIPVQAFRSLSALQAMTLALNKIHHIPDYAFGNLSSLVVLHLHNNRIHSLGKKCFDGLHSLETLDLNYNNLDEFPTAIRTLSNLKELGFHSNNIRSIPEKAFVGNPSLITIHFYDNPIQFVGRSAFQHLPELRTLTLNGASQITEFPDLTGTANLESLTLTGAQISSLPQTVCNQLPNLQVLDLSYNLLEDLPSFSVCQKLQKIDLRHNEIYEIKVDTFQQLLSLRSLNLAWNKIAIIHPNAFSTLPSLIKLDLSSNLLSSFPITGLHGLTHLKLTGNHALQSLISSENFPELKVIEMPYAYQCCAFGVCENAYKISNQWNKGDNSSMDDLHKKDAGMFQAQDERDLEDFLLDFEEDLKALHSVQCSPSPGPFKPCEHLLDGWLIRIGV
Protocol: Binding affinities between RSPO proteins and LGR5 were analyzed by surface plasmon resonance. A soluble LGR5-Fc construct was generated using standard recombinant DNA techniques. Specifically, amino acids 1-564 of human LGR5 were ligated in frame to human Fc and the recombinant LGR5-Fc fusion protein was expressed in insect cells using baculovirus. The LGR5-Fc fusion protein was purified from the insect medium using protein A chromatography. Cleavage of the LGR5 signal sequence results in a mature LGR5-Fc fusion protein containing amino acids 22-564 of LGR5. […] Two-fold dilutions of soluble LGR5-Fc were injected over the chip surface (100 nM to 0.78 nM). Kinetic data were collected over time using a Biacore 2000 system from Biacore Life Sciences (GE Healthcare) and the data were fit using the simultaneous global fit equation to yield affinity constants (KD values) for each RSPO protein (Table 3).

B1: anti-RSPO3 antibody 131R002 (IgG2) (antibody, V domains shown)
VH: QVQLQESGPELVKPGASVKISCKASGYTFTDYSIHWVKQNHGKSLDWIGYIYPSNGDSGYNQKFKNRATLTVDTSSSTAYLEVRRLTFEDSAVYYCATYFANYFDYWGQGTTLTVSS
VL: DIVLTQSPASLAVSLGQRATISCKASQSVDYDGDSYMNWYQQKPGQPPKLLIYAASNLESGIPARFSGSGSGTDFTLNIHPVEEEDAATYYCQQSNEDPLTFGAGTKLELKR
Q: For B1, which Kd [1] is on record?
A: < 10 nM

B2: anti-RSPO3 antibody 131R003 (IgG2) (antibody, V domains shown)
VH: QVQLKQSGPELVKPGASVKISCKASGYTFTDYSIHWVKQNHGKSLDWIGYIYPSNGDSGYNQKFKNRATLTVDTSYSTAYLEVRRLTFEDSAVYYCATYFANYFDYWGQGTTLTVSS
VL: DIVLTQSPASLAVSLGQRATISCKASQSVDYDGDSYMNWYQQKPGQPPKLLIYAASNLESGIPARFSGSGSGTDFTLNIHPVEEEDAATYYCQQSNEDPLTFGAGTKLELKR
notes: also called parental 131R003
Q: For B2, which Kd [1] is on record?
A: < 10 nM

B3: RSPO4-Fc fusion protein (full-length human RSPO4 ligated in-frame to a human Fc region) (Fc fusion, UniProt Q2I0M5 20-234, looked up)
chain: LNRRKKQVGTGLGGNCTGCIICSEENGCSTCQQRLFLFIRREGIRQYGKCLHDCPPGYFGIRGQEVNRCKKCGATCESCFSQDFCIRCKRQFYLYKGKCLPTCPPGTLAHQNTRECQGECELGPWGGWSPCTHNGKTCGSAWGLESRVREAGRAGHEEAATCQVLSESRKCPIQRPCPGERSPGQKKGRKDRRPRKDRKLDRRLDVRPRQPGLQP
notes: not shown: human Fc region
Q: Which Kd [2] does the source give for B3 here?
A: 73 nM
